Three molecules from PMC3585288, “Interactions of Archaeal Chromatin Proteins Alba1 and Alba2 with Nucleic Acids” (PLoS ONE, 2013) can be followed below.

Data set [1] concerns the molecule itself. Kind of data set: native gel or EMSA; native protein PAGE, 20% acrylamide homogeneous gel, PhastSystem, acidic buffer agarose strips, proteins migrating towards the negative electrode; equinatoxin II (19.82 kDa) as size reference.
The target in data set [2] is T1, Alba1 (Ape10b1);Alba2 (Ape10b2) (Aeropyrum pernix;Aeropyrum pernix, UniProt Q9YAW1;Q9YAX2 1-94;1-102, |).
T1 sequence 1: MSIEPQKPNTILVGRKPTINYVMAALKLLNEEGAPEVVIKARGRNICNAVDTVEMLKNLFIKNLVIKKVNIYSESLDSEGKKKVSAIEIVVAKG
T1 sequence 2: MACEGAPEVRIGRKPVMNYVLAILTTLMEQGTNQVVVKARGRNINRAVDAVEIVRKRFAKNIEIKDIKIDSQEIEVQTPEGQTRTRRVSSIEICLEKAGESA
The data set is described as follows: SPR; 6.0 uM equimolar complex; biphasic; ITC: 50 mM NaH2PO4, pH 7.0, 25 C; SPR: 50 mM NaH2PO4, 150 mM NaCl, 0.005% P20, pH 7.0, 25 C; UV melting: 50 mM NaH2PO4, pH 7.0; EMSA: 0.8% agarose, 1 h at room. Particulars: protein: recombinant;recombinant; tags: His-tag (pQE-30UA); copies: 1;1; label: 5'-biotin on one strand (S1); blunt.

The target of the next data set is T2, Alba2 (Ape10b2) (Aeropyrum pernix, UniProt Q9YAX2 1-102).
T2 sequence: T1 sequence 2
The data set is described as follows: SPR; 6.0 uM protein; slower association and dissociation; ITC: 50 mM NaH2PO4, pH 7.0, 25 C; SPR: 50 mM NaH2PO4, 150 mM NaCl, 0.005% P20, pH 7.0, 25 C; UV melting: 50 mM NaH2PO4, pH 7.0; EMSA: 0.8% agarose, 1 h at room. Particulars: protein: recombinant; tags: His-tag (pETDuet-1); chain copies: 2; label: 5'-biotin on one strand (S1); blunt.

The target in the next data set is T3, Alba1 (Ape10b1) (Aeropyrum pernix, UniProt Q9YAW1 1-94).
T3 sequence: T1 sequence 1
Kind of data set: SPR; 6.0 uM protein; saturable, fast association; ITC: 50 mM NaH2PO4, pH 7.0, 25 C; SPR: 50 mM NaH2PO4, 150 mM NaCl, 0.005% P20, pH 7.0, 25 C; UV melting: 50 mM NaH2PO4, pH 7.0; EMSA: 0.8% agarose, 1 h at room. Particulars: protein: recombinant; tags: His-tag (pQE-30UA); chain copies: 2; label: 5'-biotin on one strand (S1); blunt.

B1: Alba1 protein from Aeropyrum pernix (APE1832.1) (natural protein, UniProt Q9YAW1 1-94, looked up)
chain: T1 sequence 1
notes: Alba1 (Ape10b1), Aeropyrum pernix, locus APE1832.1; 94 amino-acid residues (10,336 Da); His-tag is removable by thrombin; also called Ape10b1; APA1
For B1, the “stoichiometry N” value in data set [1] came out at 2.

B2: Alba2 protein from Aeropyrum pernix (APE1823) (natural protein)
chain: T1 sequence 2
notes: Alba2 (Ape10b2), Aeropyrum pernix, locus APE1823; 102 amino-acid residues (11,380 Da); His-tag is removable by thrombin; Co-expression with untagged Alba1 may leave Alba1 in the Alba2 preparation (my surmise); also called Ape10b2; APA2
For the molecule B2, the “stoichiometry N” value in data set [1] came out at 2.

B3: SPRspecAP (dsDNA)
DNA 1: CCCCCCCGTGAAAGCCTAGACAGCGAGGCCCCCCC
DNA 2: GGGGGGGCCTCGCTGTCTAGGCTTTCACGGGGGGG
As for B3, the binding result (in data set [2]; with Alba2 (Ape10b2); with Alba1 (Ape10b1)) was “binds” each time.
